# In the supplement of paper PMC9170038:
# Test system: K4 kissing-loop RNA reporter
# Test: apparent KD of K4 kissing-loop reporter; higher = weaker reporter binding
# Conditions: Eterna round: R107; input ligand: theophylline 20 uM
# Procedure: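 RNA-MaP round R107: designed RNA switches with theophylline, tryptophan, arginine or FMN aptamers are transcribed on-chip within common flanks. They are titrated with a labelled K4 kissing-loop RNA reporter in RNA-MaP buffer (100 mM Tris pH 7.5, 80 mM KCl, 4 mM MgCl2), without ligand or with the indicated ligand. Median apparent KD per design.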
# 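Also: bound reporter read as fluorescence of individual clusters on recovered sequencing chips by microscopy, with normalized cluster intensities fitted with a binding model.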
row,Sequence,apparent KD of K4 kissing-loop reporter
1,AGACUUCACCGAAGGAGCGACGUAGCCUAGUGAUGUUAGGCACGAGAGAAAUCUCGUGUACGUCAGGUAGGUCGCGGUGAAGUCA [Omei KL Arginine B SS C v5],827 nM
2,UAGAGAUCGAGAAGGAGCGAGAAAGCUAGUACAUAUGUACUAGCAAAGCAGUGAUGUUGCACUCAGGUAGGUCGCUCGAUCUCAU [AK1.1 SS Arginine B],432 nM
3,UGCACGGGCUCGGCCGCCACUCCCGCGGGUCGGAAGGUCCGCUACUGAGUGAUGUUCGGUUGGAGGAGGACCGGGAGCCCGUGCA [#2 Exclusion - Tryptophan B Attempt #26 (HarryS)],104 nM
4,CGUUUAGUGAUGUUAAGCGUCCACUACGAUACCAGAACUAUAACCUUCCCUUGGCAGCGUUUAUAUUGUAACUCAUGUGUUAAUU [theeternabot_exclusion_KL_Theo_A_11],503 nM
5,GCCGUACGCAUGGAUACCAGAGAUGUUAGUCUCGAUGCCAGUGAUGUUGGCUAUAGCAUACUCCCUUGGCAGCCAUGCGUACGGC,113 nM
6,GGAUCCACCAGUGAUGUUGGAGAAAACUCUAAGGAUAUGACGAAAGUCAGAAGGUGGUAGACUGGACAAAGUCCGGUGGGAUCCA [FmnA10 U30+G78],406 nM
7,AUCUGUCAAGGACAACAUUACUGAGGUGAUACCAGCAUCGAAAGAUGCCCUUGGCAGCACCAACUUGCAGUGAUGUUGCAAGUAA [BrourdMod 10 - Jieux - Exclusion - Theophylline A],393 nM
8,GUACGCUUCCGAGUGAUGUUCGGUAAUAGUUAGGAUAUCGUUUUUUCGAGAAGGAACUGAAUGAGGAAACUCGUUCGAAGUGUAC [FMN A 16],424 nM
9,UGAUACCAGACGGCCGCCACUCCCGUAAGUCAAAGACUUACGAAGAGAGUUUUUCAGUGAUGUUGGAGGACCGGGUCUGGUAUCU [FiskerMod 16 - Jieux - Exclusion - Tryptophan B],850 nM
10,CCUAUCUCAUACGAUACCAGUCAACGAGUGAUGUUCGAAUAAAUAAAUUUGCCAAAUAAUGACCCUUGGCAGCGUAUGGGAUAGG [Ex Theophylline B K4 15],302 nM
11,GUCCCGAGUGAUGUUCGGGUCGUUUGGGAAGGAGCGCCCGGAAGGGCAGGUAGGUCGCCCGGACCGUGCAGGUAACUGUGCGGCC [#2 Same State - Arginine A Attempt #18 (HarryS)],196 nM

# Same assay, conditions: Eterna round: R107; input ligand: tryptophan 2.4 mM
row,Sequence,apparent KD of K4 kissing-loop reporter
1,UCGGACCCUGGAGGAUAUGAGUCUAGUGAUGUUAGGCGGUCCAUGCGCGUGGCGCGUUAUGCCCUUUUAGAAGGCCAGGGUCCGA [#2 Exclusion - FMN B Attempt #15 (HarryS)],84.6 nM
2,GGUAGCAUGGCGGCCGCCACUUAUGUUCACAUAGUGAUGUUAUGUUCACAUUUAUGGCCCUGCUUAAGGACCGGGCCAUGCUACC,272 nM
3,AGUGAACGAGCGGCCGCCACUAACUGAGUGAUGUUCGUGAGUAGUGCUGUUCUCAUGAUUGUUUUUAGGACCGGGUUCGAUGUUG [ttbjmullin],360 nM
4,AAGUGAUGUUGUAGUGAUGUUGUGAUGUUGCAGGAUAUAUAGUGAUGUAGAAGGGUAUGUGCAGUUUUCUUUUUUGAGUGUUGAU [aavamullin],56.9 nM
5,ACGUAGUUCUAGGAUACCAGCCAAGAAGCCAGGACAAAAGUCCUGGCUGCCAGUGAUGUUGGCCCUUGGCAGCCUAGAACUACGA [Omei KL Theo B Exc B v10],121 nM
6,GAUCUGAACGAAAGUUCGGAUCAGUCCGAUACCAGUAUGGAUUCAUACCCUUGGCAGCGGAAAUCUGCUAUGGAGUGAUGUUCCU [Theophylline A K4 13],274 nM
7,UGACAUUGCUCAGAUACCAGACCUGAGGAUCACCCGGGUGCCAAACGUACAAUAAUAAAGGUCCCUUGGCAGCUGAGCAAUGUCU [TheoBX 14],83.9 nM
8,GGGUGGCAGACGGCCGCCACUCUUAGCAGCCAGUGAGUGAUGUUCGUGGCGGAGUGAUGUUCCUAGAGGACCGGGUUUGUUGUUC [Same State Tryptophan B GF 20],318 nM
9,UGGGAUUUGUCAGGAUAUGAGUGCAGUGAUGUUGCACUUAAUAAAGUACAUAGGCCCUGCUGGCACUCAGAAGGGACGGUGAUGC [Lalasobeer],92.4 nM
10,CAGGCCGAGUGAUGUUCGGUCUGAGUGAUAAAGGAUAUAAGGGAUUUUAGAAGGUUAUCUAAACAGACCAAACAUCUAUCCACUC [theeternabot_exclusion_KL_FMN_A_16],122 nM
11,UUAGUAUAGAGAGGAUAUACCUUCCAGUGAUGUUGGAUAGAUGAAUUUAAUCAUCAAGCAUAGCUUGUAGAAGGCUCUAUACAUU [AK1 SS FMN B],613 nM
12,CAACCGUAACACGAUACCAGCCUAGAAGCCAGUGAUGUUGGCCUUUUUUCGGAAAUGAAAGGCCCUUGGCAGCGUGGAUAAAAUG [Lelabiised],501 nM
13,UGUGGAGGAUAUGAUACCAGCAGUGAGAGAGAGGAAGUAUAGUGAUGUUAUAUGAGAGAAUGCCCUUGGCAGCGUAUGUAGUAGG [SSTheophylB.I],191 nM
14,AACUGUCAAGGACAACAUUACUGAGGUGAUACCAGCAUCGAAAGAUGCCCUUGGCAGCACCAACUUGCAGUGAUGUUGCAAGUAA [Design6],214 nM
15,CGCAGUGAUGUUGCUUAUAUUCUUGGUUAACGAGGACCGGUACGGCCGCCACUCGAUUUCUAACUAUUCCAGUGUUAAUUUGAGU [JR_ExcTryptoA_Sub006],306 nM
16,UCCUGCAAUCUGCCACGAAAGUGGGUUGAUACCAGAGUCGAAAGACUCCCUUGGCAGCGAGUGAUGUUCGUUGCAGGUGUAUAAA [MatMod 10 - Jieux - Exclusion - Theophylline A],179 nM
17,AGUAGAGCAUCAGAUACCAGACAGAACUGAUGGUAAGGAGUGAUGUUCCUUAAUCAGCUUGUCCCUUGGCAGCUGAUAGUAGUCA [#14 K4 Theophylline B Same State],383 nM
18,UUCUACGAGUGAUGUUCGUAGUGUAUUCACUAGGAUAUCGUUUUUUCGAGAAGGAGUGAGGAAGUGAUACGAAAGUAUCGCUUCC [FMN A 15],378 nM
19,ACUAAGGUUUUUGGAGCAGUGAUGUUGCUCCGAGGACCGGUACGGCCGCCACUCGGUGCAUGUAUGCGCUUCACUCCGGAAGUUG [Bieron],139 nM
20,GGUUCGAGUGAUGUUCGGGUCGAUUGGGAAGGAGCGCCCGGAAGGGCAGGUAGGUCGCCCGGGCCGCGCGGGAAACCGCGCGUCC [#2 Same State - Arginine A Attempt #7 (HarryS)],144 nM
21,UUUAUAAUGUCGGCCGCCACUGGAUUAAUAUUUGUAUAAUCUAGUUCUGAGUGAUGUUUAGAGUCCAGGACCGGGACAUUUGUUA [#10 K4 Tryptophan B Exclusion],520 nM
22,GCCGUAGAUGGAAGGAGCGAGGUAGACUGUUGAAGUGAUGUUUCAACUCAUUAAGCCCAACCUCAGGUAGGUCGCCAUCUACGGC,115 nM

row,Sequence,apparent KD of K4 kissing-loop reporter
1,UGAUAGGACAGAAGGAGCGGUAGUGAUGUUGCCAAAAGAAUAAGGUGUCAAAAGACACCCUACCAGGUAGGUCGCUGUCCUAUCU,289 nM
2,CGCAGUGAUGUUGCGAGUUUAUUCAGGGAAGGAGCGCCACAGAUGGCAGGUAGGUCGCCCACGCAGUGAUGUUGUGUAUUCGGGU [Exclusion Arginine A GF 3],116 nM
3,UUUUAGGUAUCUGAUACCAGAGAAAAUAUAUGUAGUGAUGUUAUAUACAAAAUAAUUAAGCUCCCUUGGCAGCAGUAUUAAUUUU [AstrosExc-TheB#3],717 nM
4,UGCGCUGUGUACUGAAAUGUUCUGCGGGAUACCAGAGUCUUUUUAUUCCCUUGGCAGCUUGAGUGAUGUUUGAUGCCGUUCUUGU [tffeymullin],435 nM
5,GAAUUAUGUAGAAGGAGCGUUAGAAGGUAUAGGUGCGAGUGAUGUUUGGACUUGUUAAUUUGACAGGUAGGUCGCUACAGAAGGA [KL-SSArg B19 #analogue],451 nM
6,UAAUGCAUGACGGCCGCCACUAGUACUGGAGUGAUGUUGUGGUACGGCGGCAGUUUAGGGUGGACUAGGACCGGGUCAUGCAUAU [KL-XTryp-B10 #analogue],356 nM
7,GCCAGGCAUCUGCAGAGUGAUGUUCAAAAGCGAGGACCGGUACGGCCGCCACUCGAAAGCAGAUGCCUGGGCGUACAAAGUACGC [idea],899 nM
8,UUGAGCCUGACGCAAGUCAGGCUCUGCGAGCGAGGACCGGUACGGCCGCCACUCGGUGCAGUGAUGUUGCAUGGCCGCAAGGCCG [#2 Exclusion - Tryptophan A Attempt #17 (HarryS)],441 nM
9,AUUGAUAUAUAUAUUUGAUUUUUAUGUGAUACCAGACAAGGCAUAGUCCCUUGGCAGCACUUUAUAUUUACGAGUGAUGUUCGUA [JR_SSTheophyA_Sub025],154 nM
10,CAAUGAGUAUAAGAUGAUAUCAUAACAGAAGGAGCGAGUGAUAACUCAGGUAGGUCGCUGAAUUUAUCGAGUGAUGUUCGAUAGA [whbob_SS_Arginine_A_sa117],176 nM
11,AGACUUCACCGAAGGAGCGACGUAGCCUAGUGAUGUUAGGCACGAGAGAAAUCUCGUGUACGUCAGGUAGGUCGCGGUGAAGUCA [Omei KL Arginine B SS C v5],1040 nM
12,UAGAGAUCGAGAAGGAGCGAGAAAGCUAGUACAUAUGUACUAGCAAAGCAGUGAUGUUGCACUCAGGUAGGUCGCUCGAUCUCAU [AK1.1 SS Arginine B],305 nM
13,UGCACGGGCUCGGCCGCCACUCCCGCGGGUCGGAAGGUCCGCUACUGAGUGAUGUUCGGUUGGAGGAGGACCGGGAGCCCGUGCA [#2 Exclusion - Tryptophan B Attempt #26 (HarryS)],88.5 nM
14,CGUUUAGUGAUGUUAAGCGUCCACUACGAUACCAGAACUAUAACCUUCCCUUGGCAGCGUUUAUAUUGUAACUCAUGUGUUAAUU [theeternabot_exclusion_KL_Theo_A_11],468 nM
15,GCCGUACGCAUGGAUACCAGAGAUGUUAGUCUCGAUGCCAGUGAUGUUGGCUAUAGCAUACUCCCUUGGCAGCCAUGCGUACGGC,107 nM
16,GGAUCCACCAGUGAUGUUGGAGAAAACUCUAAGGAUAUGACGAAAGUCAGAAGGUGGUAGACUGGACAAAGUCCGGUGGGAUCCA [FmnA10 U30+G78],317 nM
17,AUCUGUCAAGGACAACAUUACUGAGGUGAUACCAGCAUCGAAAGAUGCCCUUGGCAGCACCAACUUGCAGUGAUGUUGCAAGUAA [BrourdMod 10 - Jieux - Exclusion - Theophylline A],299 nM
18,GUACGCUUCCGAGUGAUGUUCGGUAAUAGUUAGGAUAUCGUUUUUUCGAGAAGGAACUGAAUGAGGAAACUCGUUCGAAGUGUAC [FMN A 16],266 nM
19,UGAUACCAGACGGCCGCCACUCCCGUAAGUCAAAGACUUACGAAGAGAGUUUUUCAGUGAUGUUGGAGGACCGGGUCUGGUAUCU [FiskerMod 16 - Jieux - Exclusion - Tryptophan B],721 nM
20,CCUAUCUCAUACGAUACCAGUCAACGAGUGAUGUUCGAAUAAAUAAAUUUGCCAAAUAAUGACCCUUGGCAGCGUAUGGGAUAGG [Ex Theophylline B K4 15],247 nM
21,GUCCCGAGUGAUGUUCGGGUCGUUUGGGAAGGAGCGCCCGGAAGGGCAGGUAGGUCGCCCGGACCGUGCAGGUAACUGUGCGGCC [#2 Same State - Arginine A Attempt #18 (HarryS)],178 nM
